The labels stand for the following.
B1: N10ΔSAK42D (SAK42D shortened by 10 amino acids at the N-terminus) (other)
chain: KGDDASYFEPTGPYLMVNVTGVDGKRNELLSPRYVEFPIKPGTTLTKEKIEYYVEWALDATAYKEFRVVELDPSAKIEVTYYDKNKKKEETKSFPITEKGFVVPDLSEHIKNPGFNLITKVVIEKK
B2: N14ΔSAK42D (SAK42D shortened by 14 amino acids at the N-terminus) (other)
chain: ASYFEPTGPYLMVNVTGVDGKRNELLSPRYVEFPIKPGTTLTKEKIEYYVEWALDATAYKEFRVVELDPSAKIEVTYYDKNKKKEETKSFPITEKGFVVPDLSEHIKNPGFNLITKVVIEKK
B3: SAK42D (mature native staphylokinase of S. aureus phage 42D, expressed free of signal peptide in E. coli TG1(pMEX602sak)) (other)
chain: SSSFDKGKYKKGDDASYFEPTGPYLMVNVTGVDGKRNELLSPRYVEFPIKPGTTLTKEKIEYYVEWALDATAYKEFRVVELDPSAKIEVTYYDKNKKKEETKSFPITEKGFVVPDLSEHIKNPGFNLITKVVIEKK

For the first assay, the target named is plasminogen (species not stated).
Experiment: not given
As for “SAK42D (mature native staphylokinase of S. aureus phage 42D, expressed free of signal peptide in E. coli TG1(pMEX602sak)) (from UniProt P15240)”, the specific activity in µmol plasmin/(µmol SAK × min) (µmol plasmin/(µmol SAK × min)) turned out to be 16.2. Molecule “N10ΔSAK42D (SAK42D shortened by 10 amino acids at the N-terminus)” came in with a specific activity in µmol plasmin/(µmol SAK × min) (µmol plasmin/(µmol SAK × min)) of 22.7. “N14ΔSAK42D (SAK42D shortened by 14 amino acids at the N-terminus)” displayed a specific activity in µmol plasmin/(µmol SAK × min) (µmol plasmin/(µmol SAK × min)) of 8.1. Turning to SAKM26C (artificial allelic SAK form), the specific activity in µmol plasmin/(µmol SAK × min) (µmol plasmin/(µmol SAK × min)) was 21.1. In the case of SAKM26L (artificial allelic SAK form), the specific activity in µmol plasmin/(µmol SAK × min) (µmol plasmin/(µmol SAK × min)) is 36.6.

In a further assay the target is human plasminogen, isolated from human plasma and immobilized on Protein-Pak epoxy-activated carrier (human, UniProt P00747). Kind of assay: analytical affinity chromatography on immobilized human plasminogen, 16° C.
On to B1, for which the affinity, expressed as Kd, was 2210 nM.

The molecule B2 displayed an equilibrium dissociation constant (Kd) of 4400 nM.

Molecule B3 yielded a Kd of 1480 nM.

Values taken from US6010897, “Expression of signal-peptide-free staphylokinases” (dated 2000).
